Results reported in US20120128663A1.
pKd: −log10 of the molar value.

Molecular target: FcRn (human) (UniProt P55899)
Assay: Biacore; pH 6.0

Substance | koff [s⁻¹] | Ka [M⁻¹] | pKd
IgG1/2 N434S/V284D | 0.116 |  | 
IgG1/2 N434S/V309E | 0.138 |  | 
IgG1/2 N434S/T307I | 0.111 |  | 
IgG1/2 N434S/K338H | 0.142 |  | 
IgG1/2 N434S/T307L | 0.137 |  | 
IgG1/2 N434S/V309R | 0.329 |  | 
IgG1 N434S |  | 1.71e+06 | 6.23
IgG1/2 N434S/K288W | 0.154 |  | 
IgG1/2 N434S/N286I | 0.148 |  | 
IgG1/2 N434S/K288I | 0.17 |  | 
IgG1/2 N434S/N286P | 0.122 |  | 
IgG1/2_WT |  |  | 5.93
IgG1/2 N434S/R255F | 0.136 |  | 
IgG1/2 N434S/A378S | 0.0902 |  | 
IgG1/2 N434S/Q438F | 0.122 |  | 
IgG1 Y436V |  | 1.46e+06 | 6.17
IgG1/2 Q311V/N434S |  | 5.77e+06 | 6.76
IgG1/2 N434S/R255I | 0.0943 | 2.57e+06 | 6.41
IgG1/2 N434S/T307R | 0.193 |  | 
IgG1/2 N434S/N286Y | 0.103 |  | 
IgG1/2 N434S/S426W | 0.275 |  | 
IgG1/2 N434S/N286G | 0.124 |  | 
IgG1/2 N434S/K288Q | 0.162 |  | 
IgG1/2 N434S/K338R | 0.141 |  | 
IgG1/2 N434S/T307H | 0.107 |  | 
IgG1/2 N434S/T307Y | 0.0847 |  | 

Substance | koff [s⁻¹] | Ka [M⁻¹] | pKd
IgG1/2 N434S/Y436F | 0.118 |  | 
IgG1/2 N434S/R255H | 0.189 |  | 
IgG1/2 N434S/Q438W | 0.119 |  | 
IgG1/2 N434S/S426H | 0.134 |  | 
IgG1/2 N434S/K288N | 0.147 |  | 
IgG1/2 N434S/N286V | 0.143 |  | 
IgG1/2 N434S/V309F | 0.168 |  | 
IgG1/2 N434S/R255W | 0.107 |  | 
IgG1/2 N434S/T307K | 0.211 |  | 
IgG1/2 N434S/T307E | 0.0702 |  | 
IgG1/2 N434S/H433G | 0.121 |  | 
IgG1/2 N434S/S426M | 0.149 |  | 
IgG1/2 N434S/N286L | 0.094 | 2.69e+06 | 6.43
IgG1/2 N434S/N286K | 0.272 |  | 
IgG1/2 N434S/N286H | 0.149 |  | 
IgG1/2 N434S/D249G | 0.142 |  | 
IgG1/2 N434S/D312Y | 0.163 |  | 
IgG1/2 N434S/Y436K |  | 723000 | 5.86
IgG1/2 Q311M/N434S |  | 4.64e+06 | 6.67
IgG1/2 N434S/V309W | 0.0832 | 3.07e+06 | 6.49
IgG1/2 N434S/I253M | 0.818 |  | 
IgG1/2 N434S/D312R | 0.231 |  | 
IgG1/2 N434S/Q438Y | 0.139 |  | 
IgG1/2 N434S/T307P | 0.0702 |  | 
IgG1/2 N434S/K248Y | 0.176 |  | 

Next, values leading:

koff [s⁻¹] | Ka [M⁻¹] | pKd | Substance
0.221 |  |  | IgG1/2 N434S/D312K
0.117 |  |  | IgG1/2 N434S/H285D
0.0416 | 5.92e+06 | 6.77 | IgG1/2 M428L/N434S
0.107 |  |  | IgG1/2 N434S/R255L
 | 5.14e+06 | 6.71 | IgG1/2 N434S/Y436I
 | 532000 | 5.73 | IgG1/2 N434S/Y436H
0.129 |  |  | IgG1/2 N434S/V309Y
0.0749 |  |  | IgG1/2 N434S/T307D
0.0627 |  |  | IgG1/2 N434S/T307W
0.186 |  |  | IgG1/2 N434S/R255Q
0.285 |  |  | IgG1/2 N434S/S426F
 | 2.91e+06 | 6.46 | IgG1/2 N434S/Y436W
0.104 |  |  | IgG1/2 N434S/Q438I
0.189 |  |  | IgG1/2 N434S/R255G
0.153 |  |  | IgG1/2 N434S/M428V
0.98 |  |  | IgG1/2 N434S/I253V
0.158 |  |  | IgG1/2 N434S/K288F
0.617 |  |  | IgG1/2 N434S/V309K
0.22 |  |  | IgG1/2 N434S/S426Y

koff [s⁻¹] | Ka [M⁻¹] | pKd | Substance
0.0988 | 2.5e+06 | 6.40 | IgG1/2 N434S/N286R
0.146 |  |  | IgG1/2 N434S/Q438G
 | 4.34e+06 | 6.64 | IgG1/2 Q311L/N434S
0.169 |  |  | IgG1/2 N434S/R255S
0.364 |  |  | IgG1/2 N434S/V309H
 | 3.56e+06 | 6.55 | IgG1/2 N434S/Y436V
0.113 |  |  | IgG1/2 N434S/Q438N
0.0818 |  |  | IgG1/2 N434S/T307G
0.0965 |  |  | IgG1/2 N434S/R255P
0.213 |  |  | IgG1/2 N434S/R255E
 | 3.15e+06 | 6.50 | IgG1/2 Y436W
0.092 |  |  | IgG1/2 N434S/T307V
0.227 |  |  | IgG1/2 N434S/V309Q
0.12 |  |  | IgG1/2 N434S/N286F
0.164 |  |  | IgG1/2 N434S/K288L
0.0981 | 2.75e+06 | 6.44 | IgG1/2 N434S/V284E
0.13 |  |  | IgG1/2 N434S/V309I
0.164 |  |  | IgG1/2 N434S/Q438H
0.117 |  |  | IgG1/2 N434S/M428I

koff [s⁻¹] | Ka [M⁻¹] | pKd | Substance
 | 1.65e+06 | 6.22 | IgG1/2 N434S/Y436L
0.104 |  |  | IgG1/2 N434S/Q438D
0.137 |  |  | IgG1/2 N434S/V309L
 | 1.42e+06 | 6.15 | IgG1 Y436W
0.0991 | 2.36e+06 | 6.37 | IgG1/2 N434S/N286D
 | 131000 | 5.12 | IgG1/2 WT
0.087 |  |  | IgG1/2 N434S/T307F
0.16 |  |  | IgG1/2 N434S/V309P
0.121 |  |  | IgG1/2 N434S/K288H
0.0653 |  |  | IgG1/2 N434S/T307M
0.179 |  |  | IgG1/2 N434S/A378G
0.106 |  |  | IgG1/2 N434S/Q438S
 | 1.43e+06 | 6.16 | IgG1/2 Y436I
0.125 |  |  | IgG1/2 N434S/T307N
0.162 |  |  | IgG1/2 N434S/K288Y
0.0867 | 2.23e+06 | 6.35 | IgG1/2 N434S/S426I
0.359 |  |  | IgG1/2 N434S/V309D
0.173 |  |  | IgG1/2 N434S/S426L
